Measured values published in patent US20210238296A1 (Genmab, published 2021).

What was measured:
[1] = biological target: T1, FcRnECDHis-B2M-BIO (recombinant biotinylated extracellular domain of human FcRn as dimer with … (human, UniProt P55899 24-297; P61769 21-119, biotinylated); experiment: FcRn ELISA at pH 6.0
T1 construct: also called FcRnhsECDHis-B2M-BIO

CD20 = biological target: T2, CD20 (human, UniProt P11836 1-297); experiment: flow cytometry on Wien 133 and Raji cells (FIG. 7)
T2 construct: whole, on cells; cell surface target of IgG1-11B8; also called human CD20
T2 sequence (looked up): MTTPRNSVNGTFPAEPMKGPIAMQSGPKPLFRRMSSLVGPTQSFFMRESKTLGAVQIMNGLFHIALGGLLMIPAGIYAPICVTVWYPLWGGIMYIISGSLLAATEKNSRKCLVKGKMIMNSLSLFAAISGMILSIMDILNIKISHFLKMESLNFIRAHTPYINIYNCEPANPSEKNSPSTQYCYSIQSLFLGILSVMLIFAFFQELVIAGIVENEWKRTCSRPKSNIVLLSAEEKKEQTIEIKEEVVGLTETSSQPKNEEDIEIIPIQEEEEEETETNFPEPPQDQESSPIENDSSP

T1 sequence (P55899 other isoform, or with tags, fused parts or gaps, chain 1 of 2): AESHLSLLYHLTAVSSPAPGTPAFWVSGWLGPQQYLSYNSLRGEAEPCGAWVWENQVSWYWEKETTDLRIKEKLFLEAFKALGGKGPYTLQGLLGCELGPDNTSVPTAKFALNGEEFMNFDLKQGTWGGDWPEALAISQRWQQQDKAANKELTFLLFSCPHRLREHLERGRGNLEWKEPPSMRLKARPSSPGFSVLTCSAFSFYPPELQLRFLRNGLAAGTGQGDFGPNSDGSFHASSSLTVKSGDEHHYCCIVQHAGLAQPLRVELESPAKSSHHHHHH
T1 sequence (P61769 21-119, chain 2 of 2): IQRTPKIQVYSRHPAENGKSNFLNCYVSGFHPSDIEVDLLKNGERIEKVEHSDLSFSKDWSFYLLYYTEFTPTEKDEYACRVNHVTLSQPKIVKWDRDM

B1: IgG1-b12 (antibody)
heavy: not shown
light: EIVLTQSPGTLSLSPGERATFSCRSSHSIRSRRVAWYQHKPGQAPRLVIHGVSNRASGISDRFSGSGSGTDFTLTITRVEPEDFALYYCQVYGASSYTFGQGTKLERKRTVAAPSVFIFPPSDEQLKSGTASVVCLLNNFYPREAKVQWKVDNALQSGNSQESVTEQDSKDSTYSLSSTLTLSKADYEKHKVYACEVTHQGLSSPVTKSFNRGEC
notes: HIV gp120-specific negative control with wild type Fc; also called human IgG1 antibody b12
What does the source list for B1?
binding result [1]: binds; binding result (CD20): no binding
